Biological target: T1, Recombinant human E-selectin/Fc chimera (human, UniProt P16581 22-556)
T1 sequence (looked up): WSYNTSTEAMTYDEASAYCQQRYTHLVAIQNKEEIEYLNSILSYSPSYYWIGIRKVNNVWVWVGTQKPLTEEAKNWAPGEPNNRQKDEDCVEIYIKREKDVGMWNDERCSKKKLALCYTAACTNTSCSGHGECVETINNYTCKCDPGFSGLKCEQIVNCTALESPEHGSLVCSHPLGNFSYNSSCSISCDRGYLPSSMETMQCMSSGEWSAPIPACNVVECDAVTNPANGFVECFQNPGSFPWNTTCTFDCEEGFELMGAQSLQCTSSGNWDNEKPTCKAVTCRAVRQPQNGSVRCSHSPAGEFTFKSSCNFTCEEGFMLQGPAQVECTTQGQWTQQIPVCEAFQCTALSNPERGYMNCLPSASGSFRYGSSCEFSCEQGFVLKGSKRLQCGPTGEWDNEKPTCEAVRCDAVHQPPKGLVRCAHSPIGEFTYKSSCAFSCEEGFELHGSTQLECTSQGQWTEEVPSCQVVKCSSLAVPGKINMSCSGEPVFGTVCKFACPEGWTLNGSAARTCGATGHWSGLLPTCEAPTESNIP
Assay: SPR

Ka: 3.18e+08 M⁻¹
Kd: 3.4 nM
koff: 0.0016 s⁻¹
kon: 379000 M⁻¹ s⁻¹
Binder: SETTTGTSSNSSQSTSNSGLAPNPTNATTKAAG (natural protein, UniProt P25063 27-59, looked up) [Recombinant human CD24]
